PMC11670113 (Proceedings of the National Academy of Sciences of the …, 2024)

B1: full-length, myristoylated Arf1-Q71L (enzyme)
chain: not shown
modifications: myristoylated
B2: AP-3 δ subunit (residues 1-617), as in the AP-3 core (domain or fragment, human, UniProt O14617 1-617, looked up)
chain: MALKMVKGSIDRMFDKNLQDLVRGIRNHKEDEAKYISQCIDEIKQELKQDNIAVKANAVCKLTYLQMLGYDISWAAFNIIEVMSASKFTFKRIGYLAASQSFHEGTDVIMLTTNQIRKDLSSPSQYDTGVALTGLSCFVTPDLARDLANDIMTLMSHTKPYIRKKAVLIMYKVFLKYPESLRPAFPRLKEKLEDPDPGVQSAAVNVICELARRNPKNYLSLAPLFFKLMTSSTNNWVLIKIIKLFGALTPLEPRLGKKLIEPLTNLIHSTSAMSLLYECVNTVIAVLISLSSGMPNHSASIQLCVQKLRILIEDSDQNLKYLGLLAMSKILKTHPKSVQSHKDLILQCLDDKDESIRLRALDLLYGMVSKKNLMEIVKKLMTHVDKAEGTTYRDELLTKIIDICSQSNYQYITNFEWYISILVELTRLEGTRHGHLIAAQMLDVAIRVKAIRKFAVSQMSALLDSAHLLASSTQRNGICEVLYAAAWICGEFSEHLQEPHHTLEAMLRPRVTTLPGHIQAVYVQNVVKLYASILQQKEQAGEAEGAQAVTQLMVDRLPQFVQSADLEVQERASCILQLVKHIQKLQAKDVPVAEEVSALFAGELNPVAPKAQKKVPV

Legend:
[1] = target: B2; assay: cryo-EM structure
cryo-EM structure = target: the molecule itself; assay: cryo-EM structure

Row | Binder | binding result [1] | binding result (cryo-EM structure)
1 | B1 | binds | –
2 | B2 | – | binds
